Experimental data: IntAct's records for PubMed 31515488

B1: Zinc finger and BTB domain-containing protein 49 (Homo sapiens), Q6ZSB9 (parent)
chain: MDPVATHSCHLLQQLHEQRIQGLLCDCMLVVKGVCFKAHKNVLAAFSQYFRSLFQNSSSQKNDVFHLDVKNVSGIGQILDFMYTSHLDLNQDNIQVMLDTAQCLQVQNVLSLCHTFLKSATVVQPPGMPCNSTLSLQSTLTPDATCVISENYPPHLLQECSADAQQNKTLDESHPHASPSVNRHHSAGEISKQAPDTSDGSCTELPFKQPNYYYKLRNFYSKQYHKHAAGPSQERVVEQPFAFSTSTDLTTVESQPCAVSHSECILESPEHLPSNFLAQPVNDSAPHPESDATCQQPVKQMRLKKAIHLKKLNFLKSQKYAEQVSEPKSDDGLTKRLESASKNTLEKASSQSAEEKESEEVVSCENFNCISETERPEDPAALEDQSQTLQSQRQYACELCGKPFKHPSNLELHKRSHTGEKPFECNICGKHFSQAGNLQTHLRRHSGEKPYICEICGKRFAASGDVQRHIIIHSGEKPHLCDICGRGFSNFSNLKEHKKTHTADKVFTCDECGKSFNMQRKLVKHRIRHTGERPYSCSACGKCFGGSGDLRRHVRTHTGEKPYTCEICNKCFTRSAVLRRHKKMHCKAGDESPDVLEELSQAIETSDLEKSQSSDSFSQDTSVTLMPVSVKLPVHPVENSVAEFDSHSGGSYCKLRSMIQPHGVSDQEKLSLDPGKLAKPQMQQTQPQAYAYSDVDTPAGGEPLQADGMAMIRSSLAALDNHGGDPLGSRASSTTYRNSEGQFFSSMTLWGLAMKTLQNENELDQ
B2: Protein NOXP20 (Homo sapiens), Q8IWE2 (parent)
chain: MSDDAGDTLATGDKAEVTEMPNSDSLPEDAEVHCDSAAVSHEPTPADPRGEGHENAAVQGAGAAAIGPPVQPQDANALEPPLNGDVTEDTLAECIDSVSLEAEPRSEIPLQEQNYLAVDSPPSGGGWAGWGSWGKSLLSSASATVGHGLTAVKEKAGATLRIHGVNSGSSEGAQPNTENGVPEITDAATDQGPAESPPTSPSSASRGMLSAITNVVQNTGKSVLTGGLDALEFIGKKTMNVLAESDPGFKRTKTLMERTVSLSQMLREAKEKEKQRLAQQLTMERTAHYGMLFDEYQGLSHLEALEILSNESESKVQSFLASLDGEKLELLKNDLISIKDIFAAKELENEENQEEQGLEEKGEEFARMLTELLFELHVAATPDKLNKAMKRAHDWVEEDQTVVSVDVAKVSEEETKKEEKEEKSQDPQEDKKEEKKTKTIEEVYMSSIESLAEVTARCIEQLHKVAELILHGQEEEKPAQDQAKVLIKLTTAMCNEVASLSKKFTNSLTTVGSNKKAEVLNPMISSVLLEGCNSTTYIQDAFQLLLPVLQVSHIQTSCLKAQP
partner: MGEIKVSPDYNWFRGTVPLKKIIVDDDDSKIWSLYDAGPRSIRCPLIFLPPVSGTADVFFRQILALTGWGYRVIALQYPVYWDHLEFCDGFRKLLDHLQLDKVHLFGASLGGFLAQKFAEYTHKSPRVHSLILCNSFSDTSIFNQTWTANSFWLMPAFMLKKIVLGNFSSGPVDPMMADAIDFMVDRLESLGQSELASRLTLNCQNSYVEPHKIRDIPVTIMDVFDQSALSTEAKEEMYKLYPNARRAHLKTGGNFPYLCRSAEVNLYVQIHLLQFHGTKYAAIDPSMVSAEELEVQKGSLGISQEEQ
B3: Tuftelin-interacting protein 11 (Homo sapiens), Q9UBB9 (parent)
chain: MSLSHLYRDGEGRIDDDDDERENFEITDWDLQNEFNPNRQRHWQTKEEATYGVWAERDSDDERPSFGGKRARDYSAPVNFISAGLKKGAAEEAELEDSDDEEKPVKQDDFPKDFGPRKLKTGGNFKPSQKGFAGGTKSFMDFGSWERHTKGIGQKLLQKMGYVPGRGLGKNAQGIINPIEAKQRKGKGAVGAYGSERTTQSMQDFPVVDSEEEAEEEFQKELSQWRKDPSGSKKKPKYSYKTVEELKAKGRISKKLTAPQKELSQVKVIDMTGREQKVYYSYSQISHKHNVPDDGLPLQSQQLPQSGKEAKAPGFALPELEHNLQLLIDLTEQEIIQNDRQLQYERDMVVNLFHELEKMTEVLDHEERVISNLSKVLEMVEECERRMQPDCSNPLTLDECARIFETLQDKYYEEYRMSDRVDLAVAIVYPLMKEYFKEWDPLKDCTYGTEIISKWKSLLENDQLLSHGGQDLSADAFHRLIWEVWMPFVRNIVTQWQPRNCDPMVDFLDSWVHIIPVWILDNILDQLIFPKLQKEVENWNPLTDTVPIHSWIHPWLPLMQARLEPLYSPIRSKLSSALQKWHPSDSSAKLILQPWKDVFTPGSWEAFMVKNIVPKLGMCLGELVINPHQQHMDAFYWVIDWEGMISVSSLVGLLEKHFFPKWLQVLCSWLSNSPNYEEITKWYLGWKSMFSDQVLAHPSVKDKFNEALDIMNRAVSSNVGAYMQPGARENIAYLTHTERRKDFQYEAMQERREAENMAQRGIGVAASSVPMNFKDLIETKAEEHNIVFMPVIGKRHEGKQLYTFGRIVIYIDRGVVFVQGEKTWVPTSLQSLIDMAK
partner: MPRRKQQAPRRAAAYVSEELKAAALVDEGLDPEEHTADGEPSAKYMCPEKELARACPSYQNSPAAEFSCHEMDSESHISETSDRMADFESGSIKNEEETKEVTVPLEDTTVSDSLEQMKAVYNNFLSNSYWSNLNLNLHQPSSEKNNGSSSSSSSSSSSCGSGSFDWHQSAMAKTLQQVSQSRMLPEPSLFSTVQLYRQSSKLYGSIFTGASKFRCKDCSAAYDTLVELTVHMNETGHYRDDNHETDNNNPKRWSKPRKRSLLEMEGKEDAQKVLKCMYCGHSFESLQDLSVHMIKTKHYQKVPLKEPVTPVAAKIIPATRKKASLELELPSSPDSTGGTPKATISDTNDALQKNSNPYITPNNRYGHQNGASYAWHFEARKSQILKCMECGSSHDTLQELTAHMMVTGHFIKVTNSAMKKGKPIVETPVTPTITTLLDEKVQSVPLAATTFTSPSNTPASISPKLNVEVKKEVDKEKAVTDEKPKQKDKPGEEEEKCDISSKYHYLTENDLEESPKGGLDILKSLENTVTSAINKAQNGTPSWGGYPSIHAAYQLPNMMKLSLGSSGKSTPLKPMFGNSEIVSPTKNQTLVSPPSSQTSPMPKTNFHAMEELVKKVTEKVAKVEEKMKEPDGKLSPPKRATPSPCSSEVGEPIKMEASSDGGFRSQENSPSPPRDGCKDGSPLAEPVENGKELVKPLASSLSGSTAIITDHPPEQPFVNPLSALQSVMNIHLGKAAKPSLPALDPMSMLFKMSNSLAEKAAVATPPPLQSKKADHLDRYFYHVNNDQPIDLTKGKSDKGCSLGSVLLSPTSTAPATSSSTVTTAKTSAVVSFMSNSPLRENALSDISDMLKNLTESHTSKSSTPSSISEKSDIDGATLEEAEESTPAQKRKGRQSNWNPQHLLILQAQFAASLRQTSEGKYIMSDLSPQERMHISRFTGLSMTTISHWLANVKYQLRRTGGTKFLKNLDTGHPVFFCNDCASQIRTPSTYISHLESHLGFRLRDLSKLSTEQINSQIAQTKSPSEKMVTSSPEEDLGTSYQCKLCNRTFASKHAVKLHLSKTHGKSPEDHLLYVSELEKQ
B4: Nuclear autoantigen Sp-100 (Homo sapiens), P23497 (parent)
chain: MAGGGGDLSTRRLNECISPVANEMNHLPAHSHDLQRMFTEDQGVDDRLLYDIVFKHFKRNKVEISNAIKKTFPFLEGLRDRDLITNKMFEDSQDSCRNLVPVQRVVYNVLSELEKTFNLPVLEALFSDVNMQEYPDLIHIYKGFENVIHDKLPLQESEEEEREERSGLQLSLEQGTGENSFRSLTWPPSGSPSHAGTTPPENGLSEHPCETEQINAKRKDTTSDKDDSLGSQQTNEQCAQKAEPTESCEQIAVQVNNGDAGREMPCPLPCDEESPEAELHNHGIQINSCSVRLVDIKKEKPFSNSKVECQAQARTHHNQASDIIVISSEDSEGSTDVDEPLEVFISAPRSEPVINNDNPLESNDEKEGQEATCSRPQIVPEPMDFRKLSTFRESFKKRVIGQDHDFSESSEEEAPAEASSGALRSKHGEKAPMTSRSTSTWRIPSRKRRFSSSDFSDLSNGEELQETCSSSLRRGSGSQPQEPENKKCSCVMCFPKGVPRSQEARTESSQASDMMDTMDVENNSTLEKHSGKRRKKRRHRSKVNGLQRGRKKDRPRKHLTLNNKVQKKRWQQRGRKANTRPLKRRRKRGPRIPKDENINFKQSELPVTCGEVKGTLYKERFKQGTSKKCIQSEDKKWFTPREFEIEGDRGASKNWKLSIRCGGYTLKVLMENKFLPEPPSTRKKRILESHNNTLVDPCEEHKKKNPDASVKFSEFLKKCSETWKTIFAKEKGKFEDMAKADKAHYEREMKTYIPPKGEKKKKFKDPNAPKRPPLAFFLFCSEYRPKIKGEHPGLSIDDVVKKLAGMWNNTAAADKQFYEKKAAKLKEKYKKDIAAYRAKGKPNSAKKRVVKAEKSKKKKEEEEDEEDEQEEENEEDDDK
partner: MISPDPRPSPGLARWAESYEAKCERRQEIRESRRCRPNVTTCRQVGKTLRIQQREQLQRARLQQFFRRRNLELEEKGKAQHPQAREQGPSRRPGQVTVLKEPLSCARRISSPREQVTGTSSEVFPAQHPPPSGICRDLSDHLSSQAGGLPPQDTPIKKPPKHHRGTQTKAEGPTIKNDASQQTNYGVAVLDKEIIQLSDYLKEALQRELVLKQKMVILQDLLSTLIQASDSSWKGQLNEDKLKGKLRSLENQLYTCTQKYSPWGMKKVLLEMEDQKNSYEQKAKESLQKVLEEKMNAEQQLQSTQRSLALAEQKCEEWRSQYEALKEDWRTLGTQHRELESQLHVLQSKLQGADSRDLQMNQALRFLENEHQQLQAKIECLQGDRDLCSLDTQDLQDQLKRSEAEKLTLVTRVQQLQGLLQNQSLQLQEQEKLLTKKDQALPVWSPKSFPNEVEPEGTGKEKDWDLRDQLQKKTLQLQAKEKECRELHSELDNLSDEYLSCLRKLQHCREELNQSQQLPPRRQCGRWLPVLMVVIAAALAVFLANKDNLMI
B5: Zinc finger protein 655 (Homo sapiens), Q8N720 (parent)
chain: MEEIPAQEAAGSPRVQFQSLETQSECLSPEPQFVQDTDMEQGLTGDGETREENKLLIPKQKISEEVHSYKVRVGRLKHDITQVPETREVYKSEDRLERLQEILRKFLYLEREFRQITISKETFTSEKNNECHEPEKSFSLDSTIDADQRVLRIQNTDDNDKYDMSFNQNSASGKHEHLNLTEDFQSSECKESLMDLSHLNKWESIPNTEKSYKCDVCGKIFHQSSALTRHQRIHTREKPYKCKECEKSFSQSSSLSRHKRIHTREKPYKCEASDKSCEASDKSCSPSSGIIQHKKIHTRAKSYKCSSCERVFSRSVHLTQHQKIHKEMPCKCTVCGSDFCHTSYLLEHQRVHHEEKAYEYDEYGLAYIKQQGIHFREKPYTCSECGKDFRLNSHLIQHQRIHTGEKAHECNECGKAFSQTSCLIQHHKMHRKEKSYECNEYEGSFSHSSDLILQQEVLTRQKAFDCDVWEKNSSQRAHLVQHQSIHTKENS

Variants of: B1
Settings: with gopc_human GOPC

Variant	effect of a mutation on the interaction
P627A	with no effect
Y320S	with no effect
E346K	with no effect

Variants of: B1
Settings: with cep70_human CEP70, Q8NHQ1
Sequence of cep70_human CEP70, Q8NHQ1 (Q8NHQ1 whole entry): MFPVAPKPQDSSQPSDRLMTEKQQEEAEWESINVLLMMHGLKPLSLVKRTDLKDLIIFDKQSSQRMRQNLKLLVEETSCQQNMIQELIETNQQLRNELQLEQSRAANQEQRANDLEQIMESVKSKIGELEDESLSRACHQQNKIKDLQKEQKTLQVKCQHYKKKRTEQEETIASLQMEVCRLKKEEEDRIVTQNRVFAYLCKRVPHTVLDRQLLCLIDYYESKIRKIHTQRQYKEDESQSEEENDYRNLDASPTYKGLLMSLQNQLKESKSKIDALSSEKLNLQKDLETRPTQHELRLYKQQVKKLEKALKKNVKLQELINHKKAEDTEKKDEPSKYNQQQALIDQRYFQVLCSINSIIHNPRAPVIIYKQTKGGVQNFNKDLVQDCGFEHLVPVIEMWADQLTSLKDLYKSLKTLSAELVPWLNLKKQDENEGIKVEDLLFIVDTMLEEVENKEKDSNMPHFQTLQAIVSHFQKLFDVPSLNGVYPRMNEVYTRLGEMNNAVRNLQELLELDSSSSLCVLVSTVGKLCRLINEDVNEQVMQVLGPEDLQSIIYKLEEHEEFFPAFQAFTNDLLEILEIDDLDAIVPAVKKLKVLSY

Variant	effect of a mutation on the interaction
P627A	with no effect
Y320S	disrupting interaction strength
E346K	with no effect

Variants of: B2
Settings: with spg21_human SPG21, Q9NZD8

Variant	effect of a mutation on the interaction
S40L	with no effect

Variants of: B3
Settings: with tsh3_human TSHZ3, Q63HK5

Variant	effect of a mutation on the interaction
S688L	with no effect
R8Q	with no effect

Variants of: B4
Settings: with TRAF3IP3, Q9Y228

Variant	effect of a mutation on the interaction
M433V	with no effect

Variants of: B5
Settings: with rint1_human RINT1, Q6NUQ1
Sequence of rint1_human RINT1, Q6NUQ1 (Q6NUQ1 whole entry): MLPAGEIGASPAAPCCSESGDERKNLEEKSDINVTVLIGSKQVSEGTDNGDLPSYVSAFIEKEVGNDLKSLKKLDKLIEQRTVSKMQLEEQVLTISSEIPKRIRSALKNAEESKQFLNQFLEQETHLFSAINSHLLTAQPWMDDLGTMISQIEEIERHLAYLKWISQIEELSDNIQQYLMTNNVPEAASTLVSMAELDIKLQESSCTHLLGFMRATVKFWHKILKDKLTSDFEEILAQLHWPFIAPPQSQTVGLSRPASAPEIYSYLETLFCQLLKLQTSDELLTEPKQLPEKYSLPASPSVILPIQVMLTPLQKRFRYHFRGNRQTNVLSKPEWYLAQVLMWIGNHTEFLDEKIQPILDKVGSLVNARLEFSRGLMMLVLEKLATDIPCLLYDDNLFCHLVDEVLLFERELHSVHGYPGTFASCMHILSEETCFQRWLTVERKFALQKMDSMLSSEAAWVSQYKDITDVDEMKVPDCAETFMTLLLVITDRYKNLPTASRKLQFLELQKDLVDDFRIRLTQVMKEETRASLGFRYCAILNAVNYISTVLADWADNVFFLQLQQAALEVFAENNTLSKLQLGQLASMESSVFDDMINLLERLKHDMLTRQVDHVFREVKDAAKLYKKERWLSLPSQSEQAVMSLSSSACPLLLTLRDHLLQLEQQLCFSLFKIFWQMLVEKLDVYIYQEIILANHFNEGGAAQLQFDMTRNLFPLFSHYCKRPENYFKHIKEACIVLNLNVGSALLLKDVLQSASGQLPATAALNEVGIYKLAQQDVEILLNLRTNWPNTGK

Variant	effect of a mutation on the interaction
S192R	with no effect

Variants of: B5
Settings: with int13_human INTS13, Q9NVM9
Sequence of int13_human INTS13, Q9NVM9 (Q9NVM9 whole entry): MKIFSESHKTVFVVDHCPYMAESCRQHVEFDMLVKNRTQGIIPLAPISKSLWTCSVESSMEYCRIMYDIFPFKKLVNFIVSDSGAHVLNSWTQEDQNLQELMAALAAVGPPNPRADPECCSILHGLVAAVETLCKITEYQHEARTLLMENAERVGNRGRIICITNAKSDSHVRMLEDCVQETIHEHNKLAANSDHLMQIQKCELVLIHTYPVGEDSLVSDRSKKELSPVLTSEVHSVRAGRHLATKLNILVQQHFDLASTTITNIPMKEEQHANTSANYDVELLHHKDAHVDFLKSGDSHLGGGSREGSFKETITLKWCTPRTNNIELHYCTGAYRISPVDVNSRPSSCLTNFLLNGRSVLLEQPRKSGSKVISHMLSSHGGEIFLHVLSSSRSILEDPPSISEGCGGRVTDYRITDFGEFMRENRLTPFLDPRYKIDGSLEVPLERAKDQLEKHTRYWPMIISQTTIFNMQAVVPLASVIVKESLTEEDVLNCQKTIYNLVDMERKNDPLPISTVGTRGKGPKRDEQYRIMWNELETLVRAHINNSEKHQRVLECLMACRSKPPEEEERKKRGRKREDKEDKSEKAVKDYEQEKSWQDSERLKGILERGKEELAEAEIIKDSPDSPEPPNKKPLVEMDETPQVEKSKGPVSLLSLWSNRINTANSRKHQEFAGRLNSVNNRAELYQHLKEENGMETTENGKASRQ

Variant	effect of a mutation on the interaction
C466G	with no effect
